Earlier results in patent US20220273793A1, “HORSE IL-31 INDUCED PRURITUS MODEL” (priority 2021, published 2022).

Tests used:
beagle dogs = details: 1.5 μg/kg intravenous challenge dose; cited from earlier work
IL-31 = target: T1, IL-31 (Canis lupus familiaris, UniProt A0A8I3S3D1); details: dogs with atopic dermatitis; cited from earlier work
T1 construct: host or cells: endogenous IL-31 of client dogs with atopic dermatitis
T1 sequence (A0A8I3S3D1 24-159): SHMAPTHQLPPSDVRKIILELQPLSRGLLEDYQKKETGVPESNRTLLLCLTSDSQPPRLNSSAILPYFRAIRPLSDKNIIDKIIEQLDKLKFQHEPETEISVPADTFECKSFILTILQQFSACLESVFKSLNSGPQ

B1: recombinant canine IL-31: recombinant canine IL-31 used as intravenous challenge in beagle dogs (protein)
chain: SHMAPTHQLPPSDVRKIILELQPLSRGLLEDYQKKETGVPESNRTLLLCLTSDSQPPRLNSSAILPYFRAIRPLSDKNIIDKIIEQLDKLKFQHEPETEISVPADTFECKSFILTILQQFSACLESVFKSLNSGPQ
For B1, the pruritus duration (beagle dogs) is listed as under 24 h.

B2: Cytopoint: canine anti-IL-31 monoclonal antibody (mAb) produced by Zoetis Inc. (antibody, chains of the INN, looked up, V domains shown)
VH: EVQLVESGGDLVKPGGSLRLSCVASGFTFSNYGMSWVRQAPGKGLQWVATISYGGSYTYYPDNIKGRFTISRDNAKNTLYLQMNSLRAEDTAMYYCVRGYGYDTMDYWGQGTLVTVSS
VL: EIVMTQSPASLSLSQEEKVTITCKASQSVSFAGTGLMHWYQQKPGQAPKLLIYRASNLEAGVPSRFSGSGSGTDFSFTISSLEPEDVAVYYCQQSREYPWTFGQGTKLEIK
In the case of B2, the “effect on pruritus and skin lesions” value (IL-31) is listed as “reduce pruritus and skin lesions”.
